From patent US20210275545A1 (YEDA RESEARCH AND DEVELOPMENT, published 2021)
Blank lines part the entries; values can stand above or below the binder they belong to.

Tests used:
[1] = biological target: T1, ERα-Gluc2 (estrogen receptor alpha fused to Gluc2) (UniProt P03372 1-595); test: PCA in HEK-293T cells, estradiol 10 nM 60 min (FIG. 8C)
T1 construct: not shown: Gaussia luciferase (Gluc), carboxyl-terminal fragment Gluc2, amino acids 94-169
T1 sequence (looked up): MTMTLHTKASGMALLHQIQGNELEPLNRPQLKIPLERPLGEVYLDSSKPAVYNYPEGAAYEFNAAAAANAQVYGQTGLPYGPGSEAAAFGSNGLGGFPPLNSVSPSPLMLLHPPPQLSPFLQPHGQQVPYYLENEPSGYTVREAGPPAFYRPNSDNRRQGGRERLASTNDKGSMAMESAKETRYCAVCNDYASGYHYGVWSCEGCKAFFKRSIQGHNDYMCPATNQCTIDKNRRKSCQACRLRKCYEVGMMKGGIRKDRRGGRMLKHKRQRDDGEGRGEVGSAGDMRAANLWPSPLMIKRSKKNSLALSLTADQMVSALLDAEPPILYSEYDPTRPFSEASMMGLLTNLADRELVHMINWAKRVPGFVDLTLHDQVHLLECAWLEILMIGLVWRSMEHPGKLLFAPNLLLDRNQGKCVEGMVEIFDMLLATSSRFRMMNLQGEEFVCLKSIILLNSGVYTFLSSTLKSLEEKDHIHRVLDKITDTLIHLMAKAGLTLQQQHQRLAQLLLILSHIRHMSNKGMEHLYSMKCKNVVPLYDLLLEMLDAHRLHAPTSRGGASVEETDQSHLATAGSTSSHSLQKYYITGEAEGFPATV
Procedure: (§1) (A) HEK-293T cells (6×10³) were seeded in 96-well plates. […] (B and C) HEK-293T cells (6×10³) were seeded in 96-well plates. […] Cells were then lysed and luminescence was determined.

[2] = biological target: T2, GR-Gluc2 (full-length glucocorticoid receptor fused at its carboxyl terminus to Gluc2) (human, UniProt P04150 1-777); test: PCA in HEK-293T cells, DEX 1 µM with or without RU486 1 µM (FIG. 1C)
T2 construct: domain: full length;range 94-169; Expressed in HEK-293/HEK-293T cells by transfection; also called Gluc2-GR; not shown: Gaussia luciferase (Gluc), carboxyl-terminal fragment Gluc2, amino acids 94-169
T2 sequence (looked up): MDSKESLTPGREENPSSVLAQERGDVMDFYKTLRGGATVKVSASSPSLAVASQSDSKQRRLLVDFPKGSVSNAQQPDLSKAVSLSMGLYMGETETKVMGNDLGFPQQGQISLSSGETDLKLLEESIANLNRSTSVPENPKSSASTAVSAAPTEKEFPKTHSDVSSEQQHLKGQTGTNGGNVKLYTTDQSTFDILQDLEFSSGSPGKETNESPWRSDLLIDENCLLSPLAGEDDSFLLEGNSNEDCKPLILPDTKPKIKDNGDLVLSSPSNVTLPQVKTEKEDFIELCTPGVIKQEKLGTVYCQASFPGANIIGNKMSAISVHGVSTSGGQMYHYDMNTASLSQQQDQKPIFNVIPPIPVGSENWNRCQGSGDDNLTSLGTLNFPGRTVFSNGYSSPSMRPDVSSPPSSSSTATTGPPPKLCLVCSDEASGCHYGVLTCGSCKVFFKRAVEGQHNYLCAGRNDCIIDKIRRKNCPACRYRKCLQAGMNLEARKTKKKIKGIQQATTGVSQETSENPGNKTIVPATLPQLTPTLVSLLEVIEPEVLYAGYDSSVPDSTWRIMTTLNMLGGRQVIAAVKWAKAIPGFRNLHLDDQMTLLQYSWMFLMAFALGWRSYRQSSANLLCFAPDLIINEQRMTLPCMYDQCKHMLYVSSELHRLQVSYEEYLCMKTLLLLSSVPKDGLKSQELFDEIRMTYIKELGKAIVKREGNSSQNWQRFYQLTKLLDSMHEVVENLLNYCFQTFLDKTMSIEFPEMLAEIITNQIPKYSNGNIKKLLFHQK
Text: EB, empty beads; C, solvent control. Images shown are representative of three biological replicates.
The resulting luminescence was normalized to the signal associated with cells treated with vehicle only.

[3] = biological target: T1, ERα-Gluc2 (estrogen receptor alpha …); test: PCA in HEK-293T cells, vehicle against estradiol 10 nM 60 min (FIG. 8C)
Procedure: as §1

[4] = biological target: T2, GR-Gluc2 (full-length glucocorticoid …); test: PCA in HEK-293T cells, DEX 1 µM or estradiol 10 nM 60 min (FIG. 8D)
Procedure: as §1

[5] = biological target: T3, MR-Gluc2 (mineralocorticoid receptor fused to Gluc2) (UniProt P08235 1-984); test: PCA in HEK-293T cells, DEX 1 µM 60 min (FIG. 8B)
T3 construct: not shown: Gaussia luciferase (Gluc), carboxyl-terminal fragment Gluc2, amino acids 94-169
T3 sequence (looked up): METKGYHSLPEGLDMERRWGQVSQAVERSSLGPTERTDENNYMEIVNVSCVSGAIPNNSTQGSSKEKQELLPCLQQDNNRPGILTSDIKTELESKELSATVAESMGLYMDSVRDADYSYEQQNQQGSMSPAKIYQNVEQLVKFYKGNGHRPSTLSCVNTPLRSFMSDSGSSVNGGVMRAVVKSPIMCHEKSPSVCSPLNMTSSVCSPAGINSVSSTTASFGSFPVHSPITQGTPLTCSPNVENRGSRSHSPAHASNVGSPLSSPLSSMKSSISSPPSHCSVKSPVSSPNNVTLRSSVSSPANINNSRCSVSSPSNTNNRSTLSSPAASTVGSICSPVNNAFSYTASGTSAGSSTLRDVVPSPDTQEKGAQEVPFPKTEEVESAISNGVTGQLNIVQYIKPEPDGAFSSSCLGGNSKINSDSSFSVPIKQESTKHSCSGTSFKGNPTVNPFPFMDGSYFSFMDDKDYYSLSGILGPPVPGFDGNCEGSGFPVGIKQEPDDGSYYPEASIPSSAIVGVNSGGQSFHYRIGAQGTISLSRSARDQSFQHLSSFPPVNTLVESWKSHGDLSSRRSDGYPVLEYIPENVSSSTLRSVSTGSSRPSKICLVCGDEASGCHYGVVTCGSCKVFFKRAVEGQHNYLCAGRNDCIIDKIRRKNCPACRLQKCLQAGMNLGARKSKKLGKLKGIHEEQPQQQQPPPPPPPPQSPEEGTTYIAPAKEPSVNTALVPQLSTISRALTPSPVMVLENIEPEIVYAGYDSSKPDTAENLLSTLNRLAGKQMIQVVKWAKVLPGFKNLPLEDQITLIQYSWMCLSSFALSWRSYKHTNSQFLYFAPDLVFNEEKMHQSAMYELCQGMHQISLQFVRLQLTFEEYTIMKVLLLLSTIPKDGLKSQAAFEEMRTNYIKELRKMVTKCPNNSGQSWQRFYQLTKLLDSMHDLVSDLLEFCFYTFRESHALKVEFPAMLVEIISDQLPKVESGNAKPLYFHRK
Procedure: as §1

[6] = biological target: T2, GR-Gluc2 (full-length glucocorticoid …); test: PCA time course after DEX 1 µM in HEK-293T cells (FIG. 2A)
Procedure: (A) HEK-293T cells (6×10³) were seeded in 96-well plates. […] Luminescence of vehicle-treated cells was used for normalization. […] Images were processed using the Zeiss ZEN2011 software. […] Bars, 20 μm.

binding result [1]: no binding
B2: Gluc1-FLI1 (full-length FLI1 fused downstream of Gluc1) (other, UniProt Q01543 1-452, looked up)
chain: MDGTIKEALSVVSDDQSLFDSAYGAAAHLPKADMTASGSPDYGQPHKINPLPPQQEWINQPVRVNVKREYDHMNGSRESPVDCSVSKCSKLVGGGESNPMNYNSYMDEKNGPPPPNMTTNERRVIVPADPTLWTQEHVRQWLEWAIKEYSLMEIDTSFFQNMDGKELCKMNKEDFLRATTLYNTEVLLSHLSYLRESSLLAYNTTSHTDQSSRLSVKEDPSYDSVRRGAWGNNMNSGLNKSPPLGGAQTISKNTEQRPQPDPYQILGPTSSRLANPGSGQIQLWQFLLELLSDSANASCITWEGTNGEFKMTDPDEVARRWGERKSKPNMNYDKLSRALRYYYDKNIMTKVHGKRYAYKFDFHGIAQALQPHPTESSMYKYPSDISYMPSYHAHQQKVNFVPPHPSSMPVTSSSFFGAASQYWTSPTGGIYPNPNVPRHPNTHVPSHLGSYY
notes: range 1-93;domain: full length; also called FiI1; not shown: Gaussia luciferase (Gluc), amino-terminal fragment Gluc1, amino acids 1-93

binding result [3]: binds
B3: Gluc1-ELF3 (other, UniProt P78545 1-371, looked up)
chain: MAATCEISNIFSNYFSAMYSSEDSTLASVPPAATFGADDLVLTLSNPQMSLEGTEKASWLGEQPQFWSKTQVLDWISYQVEKNKYDASAIDFSRCDMDGATLCNCALEELRLVFGPLGDQLHAQLRDLTSSSSDELSWIIELLEKDGMAFQEALDPGPFDQGSPFAQELLDDGQQASPYHPGSCGAGAPSPGSSDVSTAGTGASRSSHSSDSGGSDVDLDPTDGKLFPSDGFRDCKKGDPKHGKRKRGRPRKLSKEYWDCLEGKKSKHAPRGTHLWEFIRDILIHPELNEGLMKWENRHEGVFKFLRSEAVAQLWGQKKKNSNMTYEKLSRAMRYYYKREILERVDGRRLVYKFGKNSSGWKEEEVLQSRN
notes: not shown: Gaussia luciferase (Gluc), amino-terminal fragment Gluc1, amino acids 1-93

Second part, the binder before the results:

B1: Gluc1-ETV4 (other, UniProt P43268 1-484, looked up)
chain: MERRMKAGYLDQQVPYTFSSKSPGNGSLREALIGPLGKLMDPGSLPPLDSEDLFQDLSHFQETWLAEAQVPDSDEQFVPDFHSENLAFHSPTTRIKKEPQSPRTDPALSCSRKPPLPYHHGEQCLYSSAYDPPRQIAIKSPAPGALGQSPLQPFPRAEQRNFLRSSGTSQPHPGHGYLGEHSSVFQQPLDICHSFTSQGGGREPLPAPYQHQLSEPCPPYPQQSFKQEYHDPLYEQAGQPAVDQGGVNGHRYPGAGVVIKQEQTDFAYDSDVTGCASMYLHTEGFSGPSPGDGAMGYGYEKPLRPFPDDVCVVPEKFEGDIKQEGVGAFREGPPYQRRGALQLWQFLVALLDDPTNAHFIAWTGRGMEFKLIEPEEVARLWGIQKNRPAMNYDKLSRSLRYYYEKGIMQKVAGERYVYKFVCEPEALFSLAFPDNQRPALKAEFDRPVSEEDTVPLSHLDESPAYLPELAGPAQPFGPKGGYSY
notes: as for B3
binding result [1]: no binding
binding result [2]: binds

B4: ERα-Gluc1 (estrogen receptor alpha fused to Gluc1) (receptor, UniProt P03372 1-595, looked up)
chain: T1 sequence (looked up)
notes: as for B3
binding result [4]: binds

B5: Gluc1-ETV2 (other, UniProt O00321 1-342, looked up)
chain: MDLWNWDEASPQEVPPGNKLAGLEGAKLGFCFPDLALQGDTPTATAETCWKGTSSSLASFPQLDWGSALLHPEVPWGAEPDSQALPWSGDWTDMACTAWDSWSGASQTLGPAPLGPGPIPAAGSEGAAGQNCVPVAGEATSWSRAQAAGSNTSWDCSVGPDGDTYWGSGLGGEPRTDCTISWGGPAGPDCTTSWNPGLHAGGTTSLKRYQSSALTVCSEPSPQSDRASLARCPKTNHRGPIQLWQFLLELLHDGARSSCIRWTGNSREFQLCDPKEVARLWGERKRKPGMNYEKLSRGLRYYYRRDIVRKSGGRKYTYRFGGRVPSLAYPDCAGGGRGAETQ
notes: as for B3
binding result [5]: binds
binding result [1]: no binding

B6: Gluc1-ERG (other, UniProt P11308-3 1-486, looked up)
chain: MIQTVPDPAAHIKEALSVVSEDQSLFECAYGTPHLAKTEMTASSSSDYGQTSKMSPRVPQQDWLSQPPARVTIKMECNPSQVNGSRNSPDECSVAKGGKMVGSPDTVGMNYGSYMEEKHMPPPNMTTNERRVIVPADPTLWSTDHVRQWLEWAVKEYGLPDVNILLFQNIDGKELCKMTKDDFQRLTPSYNADILLSHLHYLRETPLPHLTSDDVDKALQNSPRLMHARNTGGAAFIFPNTSVYPEATQRITTRPDLPYEPPRRSAWTGHGHPTPQSKAAQPSPSTVPKTEDQRPQLDPYQILGPTSSRLANPGSGQIQLWQFLLELLSDSSNSSCITWEGTNGEFKMTDPDEVARRWGERKSKPNMNYDKLSRALRYYYDKNIMTKVHGKRYAYKFDFHGIAQALQPHPPESSLYKYPSDLPYMGSYHAHPQKMNFVAPHPPALPVTSSSFFAAPNPYWNSPTGGIYPNTRLPTSHMPSHLGTYY
notes: as for B3
binding result [6]: binds
binding result [5]: binds
binding result [1]: no binding
